Results: IntAct's records for PubMed 18835279

B1: Tax1-binding protein 3 (Mus musculus), Q9DBG9 (parent)
chain: MSYTPGQPVTAVVQRVEIHKLRQGENLILGFSIGGGIDQDPSQNPFSEDKTDKGIYVTRVSEGGPAEIAGLQIGDKIMQVNGWDMTMVTHDQARKRLTKRSEEVVRLLVTRQSLQKAVQQSMLS

Variants of: B1
Settings: with ctnb1_human CTNNB1, P35222
Chain of ctnb1_human CTNNB1, P35222 (P35222 whole entry): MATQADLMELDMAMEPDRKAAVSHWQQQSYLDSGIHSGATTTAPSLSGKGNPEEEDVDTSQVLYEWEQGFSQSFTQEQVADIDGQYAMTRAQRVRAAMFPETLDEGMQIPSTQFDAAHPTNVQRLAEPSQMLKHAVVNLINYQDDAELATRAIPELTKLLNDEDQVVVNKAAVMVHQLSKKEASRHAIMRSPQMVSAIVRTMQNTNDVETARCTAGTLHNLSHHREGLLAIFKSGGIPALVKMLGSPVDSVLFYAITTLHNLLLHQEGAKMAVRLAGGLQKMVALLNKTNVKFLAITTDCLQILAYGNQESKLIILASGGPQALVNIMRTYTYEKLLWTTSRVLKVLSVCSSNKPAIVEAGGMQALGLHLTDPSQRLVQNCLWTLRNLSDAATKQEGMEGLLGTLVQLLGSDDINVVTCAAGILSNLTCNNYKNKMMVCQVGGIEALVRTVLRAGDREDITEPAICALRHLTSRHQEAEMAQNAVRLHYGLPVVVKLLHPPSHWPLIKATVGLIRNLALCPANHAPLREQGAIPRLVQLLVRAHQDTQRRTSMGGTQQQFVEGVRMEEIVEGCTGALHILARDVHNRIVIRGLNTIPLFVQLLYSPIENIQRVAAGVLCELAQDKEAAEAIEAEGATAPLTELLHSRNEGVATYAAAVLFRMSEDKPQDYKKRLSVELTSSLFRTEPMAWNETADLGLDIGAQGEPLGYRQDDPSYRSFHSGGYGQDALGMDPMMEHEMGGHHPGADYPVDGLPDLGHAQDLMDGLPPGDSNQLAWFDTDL

Variant	effect of a mutation on the interaction
MSYTPGQPVTAVVQRVEIHKLRQGENLILGFSIGGGIDQDPSQNAFSEDKTDKGIYVTRVSEGGPAEIAGLQIGDKIMQVNGWDMTMVTHDQARKRLTKRSEEVVRLLVTRQSLQKAVQQSMLS [P45A]	decreasing interaction
MSYTPGQPVTAVVQRVEIHKLRQGENLILGFSIGGGIDQDPSQNSFSEDKTDKGIYVTRVSEGGPAEIAGLQIGDKIMQVNGWDMTMVTHDQARKRLTKRSEEVVRLLVTRQSLQKAVQQSMLS [P45S]	decreasing interaction

Variants of: B1
Settings: with ctnb1_human CTNNB1, P35222
Remark: another data set of the same source

Variant	effect of a mutation on the interaction
MSYTPGQPVTAVVQRVEIHKLRQGENLILGFSIGGGIDQDPSQNAFSEDKTDKGIYVTRVSEGGPAEIAGLQIGDKIMQVNGWDMTMVTHDQARKRLTKRSEEVVRLLVTRQSLQKAVQQSMLS [P45A]	increasing interaction
